Measured values: patent US20240067932A1, “METHODS AND COMPOSITIONS FOR GENERATING HEMOGENIC ENDOTHELIAL CELLS FROM PLURIPOTENT STEM CELLS” (Trailhead Biosystems Inc., priority 2022, published 2024)

What was measured:
[1] = tested on: early mesoderm progenitors; test: 8-factor HD-DoE experiments optimized for maximum GATA2 expression (qPCR, partial least squares models); assay type: cell-based, human; settings: fifth model, FIG. 6; factors VPA, SCF, BMP4, EFG, FLT3L, Arginine, Retinoic Acid, VEGF
[2] = tested on: early mesoderm progenitors; test: Factor criticality / dynamic profile analysis of gene expression on removal of a finalized effector; assay type: cell-based, human; set-up: expression level of GATA2 / expression level of TAL1 / expression level of CD44 / expression level of KDR / expression level of CD34 / expression level of CD31: unit not given here
[3] = model FIG. 11, named factor removed

B1: BMP4: BMP pathway agonist (protein, UniProt P12644 293-408, looked up)
Bone morphogenetic protein 4: SPKHHSQRARKKNKNCRRHSLYVDFSDVGWNDWIVAPPGYQAFYCHGDCPFPLADHLNSTNHAIVQTLVNSVNSSIPKACCVPTELSAISMLYLDEYDKVVLKNYQEMVVEGCGCR
[1]
  factor contribution (maximum expression of GATA2): 31
[2]; model FIG. 11 (Retinoic Acid, BMP4, VEGF), factor present
  expression level of GATA2: 519
[2]; model FIG. 11, factor present
  expression level of CD31: 768
  expression level of CD34: 3971
  expression level of FLI1 (Fill [sic]): 3250
  expression level of KDR: 17667
  expression level of TAL1: 490
[2]; [3]
  expression level of CD31: 682
  expression level of CD34: 3455
  expression level of FLI1 (Fill [sic]): 2213
  expression level of GATA2: 338
  expression level of KDR: 10025
  expression level of TAL1: 422
